Target: T1, endogenous AIF (apoptosis inducing factor) contained in human cell lysates (human, UniProt O95831 55-613, limits assumed)
T1 construct: Endogenous protein in cell lysate; also called AIF contained in the lysate of U2OS cells
Assay: co-immunoprecipitation from human cancer cell lysates

T1 sequence (O95831 55-613 limits assumed): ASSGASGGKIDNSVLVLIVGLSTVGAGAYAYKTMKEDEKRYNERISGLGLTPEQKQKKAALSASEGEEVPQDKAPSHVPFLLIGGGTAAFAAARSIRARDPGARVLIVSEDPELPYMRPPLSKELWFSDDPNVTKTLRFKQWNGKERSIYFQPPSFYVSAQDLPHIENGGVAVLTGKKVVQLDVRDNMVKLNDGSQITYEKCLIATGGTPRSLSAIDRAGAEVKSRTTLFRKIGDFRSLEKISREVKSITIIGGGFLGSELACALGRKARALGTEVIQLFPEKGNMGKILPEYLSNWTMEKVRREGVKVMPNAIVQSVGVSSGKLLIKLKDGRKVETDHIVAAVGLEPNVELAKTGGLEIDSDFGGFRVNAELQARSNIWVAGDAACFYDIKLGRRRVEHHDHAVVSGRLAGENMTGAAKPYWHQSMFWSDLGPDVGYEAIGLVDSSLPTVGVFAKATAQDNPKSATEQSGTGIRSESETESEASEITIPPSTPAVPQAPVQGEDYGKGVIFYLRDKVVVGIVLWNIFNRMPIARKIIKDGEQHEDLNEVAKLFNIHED

binding result: no binding
B1: CHCHD3 (other, human, UniProt Q9NX63 2-227, looked up)
chain: GGTTSTRRVTFEADENENITVVKGIRLSENVIDRMKESSPSGSKSQRYSGAYGASVSDEELKRRVAEELALEQAKKESEDQKRLKQAKELDRERAAANEQLTRAILRERICSEEERAKAKHLARQLEEKDRVLKKQDAFYKEQLARLEERSSEFYRVTTEQYQKAAEEVEAKFKRYESHPVCADLQAKILQCYRENTHQTLKCSALATQYMHCVNHAKQSMLEKGG
notes: also called a MIA40 family member
